From patent US20250179183A1
Several values for one entry are separate records, joined by “and”; a condition that tells them apart may be missing. Identical values can stand only once.

How the values were obtained:
[1] = biological target: SARS-CoV-2 spike South African Δ3 B.1.351 variant (pseudovirus RVP-724) (SARS-CoV-2) (UniProt P0DTC2); assay: cell-based or functional assay
[2] = biological target: SARS-CoV-2 spike N439K variant (pseudovirus RVP-703) (SARS-CoV-2) (UniProt P0DTC2); assay: cell-based or functional assay

## REGN10987 (antibody)
[1]
  EC50 (pM) Neutralization, pseudovirus: 2.48 pM and 2.37 pM
[2]
  EC50 (pM) Neutralization, pseudovirus: 2260 pM and 2220 pM
